The source of these data is the supplement of paper PMC5998384.

Data set [1] has as its system HeLa Kyoto. The experiment in a line: solubility in G1/S (NP-40 vs SDS abundance) (log2 ratio); higher = more soluble. The note with it: cell cycle stage: G1/S.
Data set [2] relates to HeLa Kyoto. The experiment in a line: melting temperature (median over replicates), in situ; higher = more thermally stable.
Data set [3] has as its system HeLa Kyoto. The experiment in a line: solubility change mitosis vs G1/S (difference of NP-40 vs SDS log2 ratios) (log2 ratio difference); higher = more soluble in mitosis.
The subject of data set [4] is HeLa Kyoto. The experiment in a line: thermal stability score vs G1/S (z-score of summed log2 fold changes over temperatures); higher = more thermally stable than in G1/S.
Setting [5] is: cell cycle stage: early G1 (4.5 h after nocodazole release).
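For melting temperature (median over replicates), in situ in this document: HeLa Kyoto cells synchronized by double thymidine or nocodazole block, proteins quantified by TMT10plex mass spectrometry, three independent biological replicates.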
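For solubility change mitosis vs G1/S (difference of NP-40 vs SDS log2 ratios) in this document: synchronized HeLa Kyoto cells (double thymidine block for G1/S, nocodazole release for mitosis), protein amounts in NP-40 versus SDS lysates quantified by mass spectrometry, three biological replicates.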
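For solubility in G1/S (NP-40 vs SDS abundance) in this document: HeLa Kyoto cells arrested at G1/S by double thymidine block, proteins quantified by TMT10plex mass spectrometry in mild NP-40 versus SDS extracts, three biological replicates.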
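For thermal stability score vs G1/S (z-score of summed log2 fold changes over temperatures) in this document: synchronized HeLa Kyoto cells, proteins quantified by TMT10plex mass spectrometry, three biological replicates, mitosis taken 0.5 h after nocodazole release, G1/S directly after double thymidine block.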

As for “MEAPLQTGMMGTSSHGLATNSSGAKVAERDGFQDVLAPGEGSAGRICGAQPVPFVPQVLGVMIGAGVAVVVTAVLILLVVRRLRVPKTPAPDGPRYRFRKRDKVLFYGRKIMRKVSQSTSSLVDTSVSATSRPRMRKKLKMLNIAKKILRIQKETPTLQRKEPPPAVLEADLTEGDLANSHLPSEVLYMLKNVRVLGHFEKPLFLELCRHMVFQRLGQGDYVFRPGQPDASIYVVQDGLLELCLPGPDGKECVVKEVVPGDSVNSLLSILDVITGHQHPQRTVSARAARDSTVLRLPVEAFSAVFTKYPESLVRVVQIIMVRLQRVTFLALHNYLGLTNELFSHEIQPLRLFPSPGLPTRTSPVRGSKRMVSTSATDEPRETPGRPPDPTGAPLPGPTGDPVKPTSLETPSAPLLSRCVSMPGDISGLQGGPRSDFDMAYERGRISVSLQEEASGGSLAAPARTPTQEPREQPAGACEYSYCEDESATGGCPFGPYQGRQTSSIFEAAKQELAKLMRIEDPSLLNSRVLLHHAKAGTIIARQGDQDVSLHFVLWGCLHVYQRMIDKAEDVCLFVAQPGELVGQLAVLTGEPLIFTLRAQRDCTFLRISKSDFYEIMRAQPSVVLSAAHTVAARMSPFVRQMDFAIDWTAVEAGRALYRQGDRSDCTYIVLNGRLRSVIQRGSGKKELVGEYGRGDLIGVVEALTRQPRATTVHAVRDTELAKLPEGTLGHIKRRYPQVVTRLIHLLSQKILGNLQQLQGPFPAGSGLGVPPHSELTNPASNLATVAILPVCAEVPMVAFTLELQHALQAIGPTLLLNSDIIRARLGASALDSIQEFRLSGWLAQQEDAHRIVLYQTDASLTPWTVRCLRQADCILIVGLGDQEPTLGQLEQMLENTAVRALKQLVLLHREEGAGPTRTVEWLNMRSWCSGHLHLRCPRRLFSRRSPAKLHELYEKVFSRRADRHSDFSRLARVLTGNTIALVLGGGGARGCSHIGVLKALEEAGVPVDLVGGTSIGSFIGALYAEERSASRTKQRAREWAKSMTSVLEPVLDLTYPVTSMFTGSAFNRSIHRVFQDKQIEDLWLPYFNVTTDITASAMRVHKDGSLWRYVRASMTLSGYLPPLCDPKDGHLLMDGGYINNLPADIARSMGAKTVIAIDVGSQDETDLSTYGDSLSGWWLLWKRLNPWADKVKVPDMAEIQSRLAYVSCVRQLEVVKSSSYCEYLRPPIDCFKTMDFGKFDQIYDVGYQYGKAVFGGWSRGNVIEKMLTDRRSTDLNESRRADVLAFPSSGFTDLAEIVSRIEPPTSYVSDGCADGEESDCLTEYEEDAGPDCSRDEGGSPEGASPSTASEMEEEKSILRQRRCLPQEPPGSATDA [PNPLA6]”, in the data set on HeLa Kyoto [1], the “solubility in G1/S (log2)” value was -0.179. Also, the values for the melting temperature with HeLa Kyoto [2] (cell cycle stage: G1/S) and in the data set with HeLa Kyoto [2] (cell cycle stage: mitosis) were 51.4 °C and 50.8 °C, respectively. Besides, in the data set on HeLa Kyoto [3], the “solubility change mitosis (log2)” value was -0.0785. Besides, the thermal stability score was -0.313 in the data set on HeLa Kyoto [4] (setting [5]) and -1.07 in the data set on HeLa Kyoto [4] (cell cycle stage: mitosis).
For the sequence “MEAVLNELVSVEDLLKFEKKFQSEKAAGSVSKSTQFEYAWCLVRSKYNDDIRKGIVLLEELLPKGSKEEQRDYVFYLAVGNYRLKEYEKALKYVRGLLQTEPQNNQAKELERLIDKAMKKDGLVGMAIVGGMALGVAGLAGLIGLAVSKSKS [FIS1]”, in the data set with HeLa Kyoto [1], the “solubility in G1/S (log2)” value was 0.15. The melting temperature is 54.2 °C in the data set with HeLa Kyoto [2] (cell cycle stage: G1/S) and 53.8 °C in the data set with HeLa Kyoto [2] (cell cycle stage: mitosis). For the same sequence, in the data set on HeLa Kyoto [3], the “solubility change mitosis (log2)” value was 0.251. For the same sequence, the thermal stability score in the data set with HeLa Kyoto [4] (setting [5]) is -2.36; in the data set with HeLa Kyoto [4] (cell cycle stage: mitosis), -0.553.
For “MECPHLSSSVCIAPDSAKFPNGSPSSWCCSVCRSNKSPWVCLTCSSVHCGRYVNGHAKKHYEDAQVPLTNHKKSEKQDKVQHTVCMDCSSYSTYCYRCDDFVVNDTKLGLVQKVREHLQNLENSAFTADRHKKRKLLENSTLNSKLLKVNGSTTAICATGLRNLGNTCFMNAILQSLSNIEQFCCYFKELPAVELRNGKTAGRRTYHTRSQGDNNVSLVEEFRKTLCALWQGSQTAFSPESLFYVVWKIMPNFRGYQQQDAHEFMRYLLDHLHLELQGGFNGVSRSAILQENSTLSASNKCCINGASTVVTAIFGGILQNEVNCLICGTESRKFDPFLDLSLDIPSQFRSKRSKNQENGPVCSLRDCLRSFTDLEELDETELYMCHKCKKKQKSTKKFWIQKLPKVLCLHLKRFHWTAYLRNKVDTYVEFPLRGLDMKCYLLEPENSGPESCLYDLAAVVVHHGSGVGSGHYTAYATHEGRWFHFNDSTVTLTDEETVVKAKAYILFYVEHQAKAGSDKL [USP3]”, the “solubility in G1/S (log2)” value with HeLa Kyoto [1] was -0.0307. The melting temperature in the data set with HeLa Kyoto [2] (cell cycle stage: G1/S) and in the data set with HeLa Kyoto [2] (cell cycle stage: mitosis) was 49.4 °C throughout. Moreover, the “solubility change mitosis (log2)” value in the data set on HeLa Kyoto [3] was -0.13. Also, the thermal stability score in the data set with HeLa Kyoto [4] (setting [5]) worked out at 0.817; in the data set with HeLa Kyoto [4] (cell cycle stage: mitosis) it was 1.54.
In the case of “MEDEMPKTLYVGNLSRDVTEALILQLFSQIGPCKNCKMIMDTAGNDPYCFVEFHEHRHAAAALAAMNGRKIMGKEVKVNWATTPSSQKKDTSSSTVVSTQRSQDHFHVFVGDLSPEITTEDIKAAFAPFGRISDARVVKDMATGKSKGYGFVSFFNKWDAENAIQQMGGQWLGGRQIRTNWATRKPPAPKSTYESNTKQLSYDEVVNQSSPSNCTVYCGGVTSGLTEQLMRQTFSPFGQIMEIRVFPDKGYSFVRFNSHESAAHAIVSVNGTTIEGHVVKCYWGKETLDMINPVQQQNQIGYPQPYGQWGQWYGNAQQIGQYMPNGWQVPAYGMYGQAWNQQGFNQTQSSAPWMGPNYGVQPPQGQNGSMLPNQPSGYRVAGYETQ [TIA1]”, the “solubility in G1/S (log2)” value with HeLa Kyoto [1] was 0.0405. Moreover, the results for the melting temperature with HeLa Kyoto [2] (cell cycle stage: G1/S) and with HeLa Kyoto [2] (cell cycle stage: mitosis) were 53.5 °C and 53 °C, respectively. In addition, the “solubility change mitosis (log2)” value in the data set on HeLa Kyoto [3] came to 0.0786. Moreover, the thermal stability score with HeLa Kyoto [4] (setting [5]) was -0.653; with HeLa Kyoto [4] (cell cycle stage: mitosis) it was -1.44.
“MEDHQHVPIDIQTSKLLDWLVDRRHCSLKWQSLVLTIREKINAAIQDMPESEEIAQLLSGSYIHYFHCLRILDLLKGTEASTKNIFGRYSSQRMKDWQEIIALYEKDNTYLVELSSLLVRNVNYEIPSLKKQIAKCQQLQQEYSRKEEECQAGAAEMREQFYHSCKQYGITGENVRGELLALVKDLPSQLAEIGAAAQQSLGEAIDVYQASVGFVCESPTEQVLPMLRFVQKRGNSTVYEWRTGTEPSVVERPHLEELPEQVAEDAIDWGDFGVEAVSEGTDSGISAEAAGIDWGIFPESDSKDPGGDGIDWGDDAVALQITVLEAGTQAPEGVARGPDALTLLEYTETRNQFLDELMELEIFLAQRAVELSEEADVLSVSQFQLAPAILQGQTKEKMVTMVSVLEDLIGKLTSLQLQHLFMILASPRYVDRVTEFLQQKLKQSQLLALKKELMVQKQQEALEEQAALEPKLDLLLEKTKELQKLIEADISKRYSGRPVNLMGTSL [CDK5RAP3]”: the “solubility in G1/S (log2)” value in the data set on HeLa Kyoto [1] stood at 0.203. Besides, the melting temperature amounted to 49.5 °C with HeLa Kyoto [2] (cell cycle stage: G1/S) and 49.4 °C in the data set on HeLa Kyoto [2] (cell cycle stage: mitosis). The “solubility change mitosis (log2)” value with HeLa Kyoto [3] was -0.0399. Moreover, the thermal stability score with HeLa Kyoto [4] (setting [5]) stood at 1.2; with HeLa Kyoto [4] (cell cycle stage: mitosis), 2.62.
